Reference: PMC5091667 (ACS chemical biology, 2016)
Each block holds one molecule with its values, some of them ahead of it. Bridges are numbered along the chain shown (N, C = ends).

Legend:
CD58 (Homo sapiens) = CD58 (Homo sapiens) (UniProt P19256); conditions: cited from earlier work
[1] = target: T1, CD58 protein (purified cell-adhesion domain, domain 1) (UniProt P19256 29-215); experiment: SPR
T1 sequence (looked up): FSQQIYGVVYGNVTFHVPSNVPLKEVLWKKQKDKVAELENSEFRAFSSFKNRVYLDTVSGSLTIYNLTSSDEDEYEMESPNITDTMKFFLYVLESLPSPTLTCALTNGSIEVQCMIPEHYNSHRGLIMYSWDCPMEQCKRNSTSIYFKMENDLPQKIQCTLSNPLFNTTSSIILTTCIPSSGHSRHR

Molecule: CD2 (from UniProt P06729)
Kd (CD58 (Homo sapiens)): 10 µM

Kd [1]: > 500 µM
B1: sunflower trypsin inhibitor SFTI-1 (peptide)
peptide: cyclo(CTKSIPPICFPDGR)
modifications: disulfide 1-9 (inferred)

koff [1]: 0.00329 s⁻¹
kon [1]: 224 M⁻¹ s⁻¹
B2: SFTI-a (peptide)
peptide: cyclo(CKASAPPSCYDGDD)
modifications: disulfide 1-9
SMILES: C[C@@H]1NC(=O)[C@H](CCCCN)NC(=O)[C@@H]2CSSC[C@H](NC(=O)[C@H](CO)NC(=O)[C@@H]3CCCN3C(=O)[C@@H]3CCCN3C(=O)[C@H](C)NC(=O)[C@H](CO)NC1=O)C(=O)N[C@@H](Cc1ccc(O)cc1)C(=O)N[C@@H](CC(=O)O)C(=O)NCC(=O)N[C@@H](CC(=O)O)C(=O)N[C@@H](CC(=O)O)C(=O)N2
